From US20110118447A1

Tests used:
[1] = target: binding partner of C5A (XPA23); assay: Biacore
[2] = target: binding partner (antigen) of C5A (XPA23); assay: Biacore, K-off, fold vs original

fold difference in affinity vs original [1] | fold difference in affinity vs original [2] | fold affinity vs original [1] | Binder
0.95 fold | 0.95 fold | – | C5A (XPA23) VH T58L (antibody, V domains shown) VH: EVQLLESGGGLVQPGGSLRLSCAASGFTFSKYFMFWVRQAPGKGLEWVSVISPSGGMLRYADSVKGRFTISRDNSKNTLYLQMNSLRAEDTAVYYCARVGYGGNSDYWGQGTLVTVSS VL: DIQMTQSPSSVSASVGDRLTIICRASQDINRWLAWYQQTPGNAPKLLIHSATSLQSGVPSRFSGSGSGTDFTLTINSLQPEDFATYYCQQADSFPLTFGGGTKVEIK
– | 0.85 fold | 0.85 fold | C5A (XPA23) VH Y101F (antibody, V domains shown) VH: EVQLLESGGGLVQPGGSLRLSCAASGFTFSKYFMFWVRQAPGKGLEWVSVISPSGGMTRYADSVKGRFTISRDNSKNTLYLQMNSLRAEDTAVYYCARVGFGGNSDYWGQGTLVTVSS VL: DIQMTQSPSSVSASVGDRLTIICRASQDINRWLAWYQQTPGNAPKLLIHSATSLQSGVPSRFSGSGSGTDFTLTINSLQPEDFATYYCQQADSFPLTFGGGTKVEIK
0.09 fold | 0.09 fold | – | C5A (XPA23) VH Y101V (antibody, V domains shown) VH: EVQLLESGGGLVQPGGSLRLSCAASGFTFSKYFMFWVRQAPGKGLEWVSVISPSGGMTRYADSVKGRFTISRDNSKNTLYLQMNSLRAEDTAVYYCARVGVGGNSDYWGQGTLVTVSS VL: DIQMTQSPSSVSASVGDRLTIICRASQDINRWLAWYQQTPGNAPKLLIHSATSLQSGVPSRFSGSGSGTDFTLTINSLQPEDFATYYCQQADSFPLTFGGGTKVEIK
– | 0.09 fold | 0.09 fold | C5A (XPA23) VH R59W (antibody, V domains shown) VH: EVQLLESGGGLVQPGGSLRLSCAASGFTFSKYFMFWVRQAPGKGLEWVSVISPSGGMTWYADSVKGRFTISRDNSKNTLYLQMNSLRAEDTAVYYCARVGYGGNSDYWGQGTLVTVSS VL: DIQMTQSPSSVSASVGDRLTIICRASQDINRWLAWYQQTPGNAPKLLIHSATSLQSGVPSRFSGSGSGTDFTLTINSLQPEDFATYYCQQADSFPLTFGGGTKVEIK
0.03 fold | 0.03 fold | – | C5A (XPA23) VH G103A (antibody, V domains shown) VH: EVQLLESGGGLVQPGGSLRLSCAASGFTFSKYFMFWVRQAPGKGLEWVSVISPSGGMTRYADSVKGRFTISRDNSKNTLYLQMNSLRAEDTAVYYCARVGYGANSDYWGQGTLVTVSS VL: DIQMTQSPSSVSASVGDRLTIICRASQDINRWLAWYQQTPGNAPKLLIHSATSLQSGVPSRFSGSGSGTDFTLTINSLQPEDFATYYCQQADSFPLTFGGGTKVEIK
– | 1.04 fold | 1.04 fold | C5A (XPA23) VH T58F (antibody, V domains shown) VH: EVQLLESGGGLVQPGGSLRLSCAASGFTFSKYFMFWVRQAPGKGLEWVSVISPSGGMFRYADSVKGRFTISRDNSKNTLYLQMNSLRAEDTAVYYCARVGYGGNSDYWGQGTLVTVSS VL: DIQMTQSPSSVSASVGDRLTIICRASQDINRWLAWYQQTPGNAPKLLIHSATSLQSGVPSRFSGSGSGTDFTLTINSLQPEDFATYYCQQADSFPLTFGGGTKVEIK
– | 0.92 fold | 0.92 fold | C5A (XPA23) VH R59F (antibody, V domains shown) VH: EVQLLESGGGLVQPGGSLRLSCAASGFTFSKYFMFWVRQAPGKGLEWVSVISPSGGMTFYADSVKGRFTISRDNSKNTLYLQMNSLRAEDTAVYYCARVGYGGNSDYWGQGTLVTVSS VL: DIQMTQSPSSVSASVGDRLTIICRASQDINRWLAWYQQTPGNAPKLLIHSATSLQSGVPSRFSGSGSGTDFTLTINSLQPEDFATYYCQQADSFPLTFGGGTKVEIK
– | 0.81 fold | 0.81 fold | C5A (XPA23) VH Y101W (antibody, V domains shown) VH: EVQLLESGGGLVQPGGSLRLSCAASGFTFSKYFMFWVRQAPGKGLEWVSVISPSGGMTRYADSVKGRFTISRDNSKNTLYLQMNSLRAEDTAVYYCARVGWGGNSDYWGQGTLVTVSS VL: DIQMTQSPSSVSASVGDRLTIICRASQDINRWLAWYQQTPGNAPKLLIHSATSLQSGVPSRFSGSGSGTDFTLTINSLQPEDFATYYCQQADSFPLTFGGGTKVEIK
1.81 fold | 1.81 fold | – | C5A (XPA23) VH T58P (antibody, V domains shown) VH: EVQLLESGGGLVQPGGSLRLSCAASGFTFSKYFMFWVRQAPGKGLEWVSVISPSGGMPRYADSVKGRFTISRDNSKNTLYLQMNSLRAEDTAVYYCARVGYGGNSDYWGQGTLVTVSS VL: DIQMTQSPSSVSASVGDRLTIICRASQDINRWLAWYQQTPGNAPKLLIHSATSLQSGVPSRFSGSGSGTDFTLTINSLQPEDFATYYCQQADSFPLTFGGGTKVEIK
0.03 fold | 0.03 fold | – | C5A (XPA23) VH V99A (antibody, V domains shown) VH: EVQLLESGGGLVQPGGSLRLSCAASGFTFSKYFMFWVRQAPGKGLEWVSVISPSGGMTRYADSVKGRFTISRDNSKNTLYLQMNSLRAEDTAVYYCARAGYGGNSDYWGQGTLVTVSS VL: DIQMTQSPSSVSASVGDRLTIICRASQDINRWLAWYQQTPGNAPKLLIHSATSLQSGVPSRFSGSGSGTDFTLTINSLQPEDFATYYCQQADSFPLTFGGGTKVEIK
0.07 fold | 0.07 fold | – | C5A (XPA23) VH R59P (antibody, V domains shown) VH: EVQLLESGGGLVQPGGSLRLSCAASGFTFSKYFMFWVRQAPGKGLEWVSVISPSGGMTPYADSVKGRFTISRDNSKNTLYLQMNSLRAEDTAVYYCARVGYGGNSDYWGQGTLVTVSS VL: DIQMTQSPSSVSASVGDRLTIICRASQDINRWLAWYQQTPGNAPKLLIHSATSLQSGVPSRFSGSGSGTDFTLTINSLQPEDFATYYCQQADSFPLTFGGGTKVEIK
– | 0.93 fold | 0.93 fold | C5A (XPA23) VH T58W (antibody, V domains shown) VH: EVQLLESGGGLVQPGGSLRLSCAASGFTFSKYFMFWVRQAPGKGLEWVSVISPSGGMWRYADSVKGRFTISRDNSKNTLYLQMNSLRAEDTAVYYCARVGYGGNSDYWGQGTLVTVSS VL: DIQMTQSPSSVSASVGDRLTIICRASQDINRWLAWYQQTPGNAPKLLIHSATSLQSGVPSRFSGSGSGTDFTLTINSLQPEDFATYYCQQADSFPLTFGGGTKVEIK
1.91 fold | 1.91 fold | – | C5A (XPA23) VH Y101L (antibody, V domains shown) VH: EVQLLESGGGLVQPGGSLRLSCAASGFTFSKYFMFWVRQAPGKGLEWVSVISPSGGMTRYADSVKGRFTISRDNSKNTLYLQMNSLRAEDTAVYYCARVGLGGNSDYWGQGTLVTVSS VL: DIQMTQSPSSVSASVGDRLTIICRASQDINRWLAWYQQTPGNAPKLLIHSATSLQSGVPSRFSGSGSGTDFTLTINSLQPEDFATYYCQQADSFPLTFGGGTKVEIK
0.04 fold | 0.04 fold | – | C5A (XPA23) VH Y101A (antibody, V domains shown) VH: EVQLLESGGGLVQPGGSLRLSCAASGFTFSKYFMFWVRQAPGKGLEWVSVISPSGGMTRYADSVKGRFTISRDNSKNTLYLQMNSLRAEDTAVYYCARVGAGGNSDYWGQGTLVTVSS VL: DIQMTQSPSSVSASVGDRLTIICRASQDINRWLAWYQQTPGNAPKLLIHSATSLQSGVPSRFSGSGSGTDFTLTINSLQPEDFATYYCQQADSFPLTFGGGTKVEIK
0.08 fold | 0.08 fold | – | C5A (XPA23) VH R59L (antibody, V domains shown) VH: EVQLLESGGGLVQPGGSLRLSCAASGFTFSKYFMFWVRQAPGKGLEWVSVISPSGGMTLYADSVKGRFTISRDNSKNTLYLQMNSLRAEDTAVYYCARVGYGGNSDYWGQGTLVTVSS VL: DIQMTQSPSSVSASVGDRLTIICRASQDINRWLAWYQQTPGNAPKLLIHSATSLQSGVPSRFSGSGSGTDFTLTINSLQPEDFATYYCQQADSFPLTFGGGTKVEIK
0.83 fold | 0.83 fold | – | C5A (XPA23) VH Y101I (antibody, V domains shown) VH: EVQLLESGGGLVQPGGSLRLSCAASGFTFSKYFMFWVRQAPGKGLEWVSVISPSGGMTRYADSVKGRFTISRDNSKNTLYLQMNSLRAEDTAVYYCARVGIGGNSDYWGQGTLVTVSS VL: DIQMTQSPSSVSASVGDRLTIICRASQDINRWLAWYQQTPGNAPKLLIHSATSLQSGVPSRFSGSGSGTDFTLTINSLQPEDFATYYCQQADSFPLTFGGGTKVEIK
1.04 fold | 1.04 fold | – | C5A (XPA23) VH R59G (antibody, V domains shown) VH: EVQLLESGGGLVQPGGSLRLSCAASGFTFSKYFMFWVRQAPGKGLEWVSVISPSGGMTGYADSVKGRFTISRDNSKNTLYLQMNSLRAEDTAVYYCARVGYGGNSDYWGQGTLVTVSS VL: DIQMTQSPSSVSASVGDRLTIICRASQDINRWLAWYQQTPGNAPKLLIHSATSLQSGVPSRFSGSGSGTDFTLTINSLQPEDFATYYCQQADSFPLTFGGGTKVEIK
0.04 fold | 0.04 fold | – | C5A (XPA23) VH Y101P (antibody, V domains shown) VH: EVQLLESGGGLVQPGGSLRLSCAASGFTFSKYFMFWVRQAPGKGLEWVSVISPSGGMTRYADSVKGRFTISRDNSKNTLYLQMNSLRAEDTAVYYCARVGPGGNSDYWGQGTLVTVSS VL: DIQMTQSPSSVSASVGDRLTIICRASQDINRWLAWYQQTPGNAPKLLIHSATSLQSGVPSRFSGSGSGTDFTLTINSLQPEDFATYYCQQADSFPLTFGGGTKVEIK
– | 0.03 fold | 0.03 fold | C5A (XPA23) VH V99F (antibody, V domains shown) VH: EVQLLESGGGLVQPGGSLRLSCAASGFTFSKYFMFWVRQAPGKGLEWVSVISPSGGMTRYADSVKGRFTISRDNSKNTLYLQMNSLRAEDTAVYYCARFGYGGNSDYWGQGTLVTVSS VL: DIQMTQSPSSVSASVGDRLTIICRASQDINRWLAWYQQTPGNAPKLLIHSATSLQSGVPSRFSGSGSGTDFTLTINSLQPEDFATYYCQQADSFPLTFGGGTKVEIK
– | 0.05 fold | 0.05 fold | C5A (XPA23) VH G100W (antibody, V domains shown) VH: EVQLLESGGGLVQPGGSLRLSCAASGFTFSKYFMFWVRQAPGKGLEWVSVISPSGGMTRYADSVKGRFTISRDNSKNTLYLQMNSLRAEDTAVYYCARVWYGGNSDYWGQGTLVTVSS VL: DIQMTQSPSSVSASVGDRLTIICRASQDINRWLAWYQQTPGNAPKLLIHSATSLQSGVPSRFSGSGSGTDFTLTINSLQPEDFATYYCQQADSFPLTFGGGTKVEIK
